Experimental data reported in US20260085128A1 (BIOLEGEND, published 2026).

T1: human CD157 (human, UniProt Q10588 33-293)
T1 construct: Endogenous CD157 on human U-937 cells and on human blood monocytes and granulocytes; also called BST-1; bone marrow stromal cell antigen 1
T1 sequence: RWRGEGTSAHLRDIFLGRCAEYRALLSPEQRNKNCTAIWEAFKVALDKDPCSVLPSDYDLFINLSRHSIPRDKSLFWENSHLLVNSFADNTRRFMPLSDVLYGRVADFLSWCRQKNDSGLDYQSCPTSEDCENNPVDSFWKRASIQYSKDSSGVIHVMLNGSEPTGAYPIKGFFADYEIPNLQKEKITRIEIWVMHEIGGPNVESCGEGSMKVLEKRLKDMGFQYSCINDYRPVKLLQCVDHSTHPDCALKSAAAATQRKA

B1: anti-CD157 monoclonal antibody AB3 (antibody, V domains shown)
VH: EVHLVESGGGLVQPGRSLKLSCAASGFTFSNYDMAWIRQAPAKGLEWVASISIRGGSTYYRDSVKGRFTVSRDNAKSTLYLQMDSLRSEDTATYYCVRGTDYYYDYFDYWGQGVMVTVSS
VL: NIQMTQSPSLLSASVGDRVTLSCKAGRNINSYLAWYQQMLGEAPKLLIYNANSLQTGIPSRFSGSGSGTDYTLTISSLQPEDVATYFCQQYNSWTNTFGAGTKLELK
notes: Hybridoma-derived monoclonal antibody; It was detected with an anti-rat IgG-PE secondary antibody; also called antibody 3; clone 3
B2: anti-CD157 monoclonal antibody AB1 (antibody, V domains shown)
VH: QVQLKESGPGLVQPSQTLSLTCTVSGFSLTSYHVSWVRQPPGKGLEWMGIIWTGGSTAYNSLLKSRLSISRDTSKSQVFLKMNSLQTEDTATYYCARSITPTFFDYWGQGVMVTVSS
VL: QFVLTQPNSVSTNLGSTVKLSCKRSTGNFGNNYVNWYQQHEGRSPTTMIYRDDKRPDGVPDRFSGSIDRSSNSALLTISNVQTEDEADYFCQSYSSGIVFGGGTKLTVL
notes: Hybridoma-derived monoclonal antibody; It was detected with an anti-rat IgG-PE secondary antibody; also called antibody 1; clone 1

Assays:
human CD157 [1] = biological target: T1, human CD157; test: flow cytometry, summary sentence of Example 3
human CD157 [2] = biological target: T1, human CD157; test: flow cytometry on U-937 cells, anti-rat IgG-PE secondary
Protocol: U-937 cells were grown in RPMI media supplemented with 10% FBS in T75 culture flask, to about 80% confluency. Various concentrations of exemplary generated anti-CD157 antibodies were added, including 2, 1, 0.5, 0.25, 0.125 and 0.06 μg, and allowed to incubate for 15 minutes. Cells were then washed twice with FACS wash buffer and stained with anti-rat IgG-PE secondary antibody for 15 minutes. Cells were washed with FACS buffer and analyzed on a BD LSRII flow cytometer.

Binder | binding result (human CD157 [1]) | binding result (human CD157 [2])
B1 | binds | 
B2 |  | binds
